# Assay results taken from patent publication US20260356924 (published 2026).
# Biological target: iPHF (human, UniProt P10636)
# Test: SPR
# Chain of iPHF (P10636 2-758): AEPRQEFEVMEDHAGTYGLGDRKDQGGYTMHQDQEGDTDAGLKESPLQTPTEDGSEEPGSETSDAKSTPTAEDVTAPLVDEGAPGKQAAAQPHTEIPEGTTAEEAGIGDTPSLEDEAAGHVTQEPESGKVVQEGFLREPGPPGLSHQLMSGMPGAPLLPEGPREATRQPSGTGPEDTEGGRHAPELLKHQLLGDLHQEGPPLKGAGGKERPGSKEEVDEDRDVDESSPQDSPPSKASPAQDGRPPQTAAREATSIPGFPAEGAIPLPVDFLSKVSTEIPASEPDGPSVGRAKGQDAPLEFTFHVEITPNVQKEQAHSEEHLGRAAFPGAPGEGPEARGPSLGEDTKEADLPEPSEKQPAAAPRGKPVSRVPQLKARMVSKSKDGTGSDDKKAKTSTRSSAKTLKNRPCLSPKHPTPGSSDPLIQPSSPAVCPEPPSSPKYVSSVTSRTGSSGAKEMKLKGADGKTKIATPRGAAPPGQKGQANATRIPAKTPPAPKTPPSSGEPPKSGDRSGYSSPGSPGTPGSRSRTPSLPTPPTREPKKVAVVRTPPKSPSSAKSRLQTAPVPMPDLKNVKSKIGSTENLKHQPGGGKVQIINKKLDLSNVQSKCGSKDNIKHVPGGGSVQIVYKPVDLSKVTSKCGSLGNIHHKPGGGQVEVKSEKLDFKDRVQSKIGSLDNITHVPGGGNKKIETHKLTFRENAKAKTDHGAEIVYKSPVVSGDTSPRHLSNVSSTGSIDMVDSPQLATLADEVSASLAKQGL
row,Kd,Binder
1,0.0325 nM,"Ab3 (antibody, V domains shown, immunopurified paired helical filament tau, hyperphosphorylated) VH: EVQLVQSGAEVKKPGSSVKVSCKASGFTFTRYWMHWVKERPGHGLEWIGNINPNNGGTDFNEKFKNRVTMTVHKSITTAYMELSRLTSDDSAVYYCARGTGTGAMDYWGQGTLVSVSS VL: DVVMTQSPLSLPVTLGQPASISCRSSQSLVHNNGITYLYWYQQRPGQSPRLLIYRVSNRFSGVPDRFSGSGSGTDFTLKISRVEAEDVGVYYCFQGTHVPRTFGQGTKLEIK"
2,0.0293 nM,"Ab2 (antibody, V domains shown, immunopurified paired helical filament tau, hyperphosphorylated) VH: QVQLVESGAEVKKPGASVKVSCKASGFTFTRYWMHWVKERPGHGLEWMGNINPNNGGTDFNEKFKNRVTITVHKSASTAYMELSSLRSEDTAVYYCARGTGTGAMDYWGQGTTVTVSS VL: DVVMTQSPLSLPVTLGQPASISCRSSQSLVHNNGITYLYWYQQRPGQSPRLLIYRVSNRFSGVPDRFSGSGSGTDFTLKISRVEAEDVGVYYCFQGTHVPRTFGQGTKLEIK"
3,0.0353 nM,"Ab4 (antibody, V domains shown, immunopurified paired helical filament tau, hyperphosphorylated) VH: QVQLVQSGAEVKKPGASVKVSCKASGFTFTRYWMHWVKERPGQGLEWMGNINPNNGGTDFNEKFKNRVTMTVHKSTSTVFIQLSSLRSEDTAVYYCARGTGTGAMDYWGQGTSVTVSS VL: DIVMTQSPLSLSVTPGQPASISCRSSQSLVHNNGITYLYWYLQKPGQSPQLLIYRVSNRFSGVPDRFSGSGSGTDFTLKISRVEAEDVGVYYCFQGTHVPRTFGQGTKVEIK"
4,0.0304 nM,"Ab10 (antibody, V domains shown, immunopurified paired helical filament tau, hyperphosphorylated) VH: EVQLVQSGAEVKKPGSSVKVSCKASGFTFTRYWMHWVKERPGHGLEWIGNINPNNGGTDFNEKFKNRVTMTVHKSITTAYMELSRLTSDDSAVYYCARGTGTGAMDYWGQGTLVSVSS VL: DIVMTQTPLSSPVTLGQPASISCRSSQSLVHNNGITYLYWYQQRPGQPPRLLIYRVSNRFSGVPDRFSGSGAGTDFTLKINRVEAEDVGVYFCFQGTHVPRTFGQGTKLEIK"
5,0.0165 nM,"V0022 control (antibody, V domains shown, immunopurified paired helical filament tau, hyperphosphorylated) VH: QVQLQQPGTELVKPGSSVNLSCKASGFTFTRYWMHWVKERPGHGLEWIGNINPNNGGTDFNEKFKNKATLTVHKSSTTVFIQLSSLTSEDSAVYYCARGTGTGAMDYWGQGTSVTVSS VL: DVVMTQTPLSLPVSLGDQASISCRSSQSLVHNNGITYLYWYLQKPGQSPKLLIYRVSNRFSGVPDRFGGSGSGTDFTLKISRVEAEDLGVYFCFQGTHVPRTFGGGTKLEIK"

# Biological target: ePHF (human, UniProt P10636)
# Sequence (P10636 2-758): as the sequence (P10636 2-758) above
# Test: ELISA
row,EC50,Binder
1,0.085 nM,"Ab1 (antibody, V domains shown, enriched paired helical filament tau, hyperphosphorylated) VH: QVQLVQSGAEVKKSGASVKVSCKASGFTFTRYWMHWVRQAPGQGLEWIGNINPNNGGTDFNEKFKNRVTLIRDTSTTTVFIQLTSLTSEDSAVYYCARGTGTGAMDYWGQGTLVTVSS VL: DIVMTQSPLSLSVTPGQPASISCRSSQSLVHNNGITYLYWYLQKPGQSPQLLIYRVSNRFSGVPDRFSGSGSGTDFTLKISRVEAEDVGVYYCFQGTHVPRTFGQGTKVEIK"
2,0.1 nM,"Ab9 (antibody, V domains shown, enriched paired helical filament tau, hyperphosphorylated) VH: EVQLVQSGAEVKKPGSSVKVSCKASGFTFTRYWMHWVKERPGHGLEWIGNINPNNGGTDFNEKFKNRVTMTVHKSITTAYMELSRLTSDDSAVYYCARGTGTGAMDYWGQGTLVSVSS VL: DIVMTQSPLSLSVTPGQPASISCRSSQSLVHNNGITYLYWYLQKPGQSPQLLIYRVSNRFSGVPDRFSGSGSGTDFTLKISRVEAEDVGVYYCFQGTHVPRTFGQGTKVEIK"
3,0.13 nM,"Ab7 (antibody, V domains shown, enriched paired helical filament tau, hyperphosphorylated) VH: QVQLVQSGAEVKKPGASVKVSCKASGFTFTRYWMHWVRERPGHGLEWIGNINPNNGGTDFNEKFKNRVTMTVHKSISTAYMELSSLRSDDSAVYYCARGTGTGAMDYWGQGTLVTVSS VL: DVVMTQSPLSLPVTLGQPASISCRSSQSLVHNNGITYLYWYQQRPGQSPRLLIYRVSNRFSGVPDRFSGSGSGTDFTLKISRVEAEDVGVYYCFQGTHVPRTFGQGTKLEIK"
4,0.17 nM,"Ab8 (antibody, V domains shown, enriched paired helical filament tau, hyperphosphorylated) VH: QVQLVQSGAEVKKSGASVKVSCKASGFTFTRYWMHWVRQAPGQGLEWIGNINPNNGGTDFNEKFKNRVTLIRDTSTTTVFIQLTSLTSEDSAVYYCARGTGTGAMDYWGQGTLVTVSS VL: DVVMTQSPLSLPVTLGQPASISCRSSQSLVHNNGITYLYWYQQRPGQSPRLLIYRVSNRFSGVPDRFSGSGSGTDFTLKISRVEAEDVGVYYCFQGTHVPRTFGQGTKLEIK"
5,0.095 nM,"Ab3 (antibody, V domains shown, enriched paired helical filament tau, hyperphosphorylated) VH: EVQLVQSGAEVKKPGSSVKVSCKASGFTFTRYWMHWVKERPGHGLEWIGNINPNNGGTDFNEKFKNRVTMTVHKSITTAYMELSRLTSDDSAVYYCARGTGTGAMDYWGQGTLVSVSS VL: DVVMTQSPLSLPVTLGQPASISCRSSQSLVHNNGITYLYWYQQRPGQSPRLLIYRVSNRFSGVPDRFSGSGSGTDFTLKISRVEAEDVGVYYCFQGTHVPRTFGQGTKLEIK"
6,0.16 nM,"Ab11 (antibody, V domains shown, enriched paired helical filament tau, hyperphosphorylated) VH: QVQLVQSGAEVKKPGASVKVSCKASGFTFTRYWMHWVKERPGQGLEWMGNINPNNGGTDFNEKFKNRVTMTVHKSTSTVFIQLSSLRSEDTAVYYCARGTGTGAMDYWGQGTSVTVSS VL: DVVMTQSPLSLPVTLGQPASISCRSSQSLVHNNGITYLYWYQQRPGQSPRLLIYRVSNRFSGVPDRFSGSGSGTDFTLKISRVEAEDVGVYYCFQGTHVPRTFGQGTKLEIK"
7,0.16 nM,"Ab6 (antibody, V domains shown, enriched paired helical filament tau, hyperphosphorylated) VH: QVQLVESGAEVKKPGASVKVSCKASGFTFTRYWMHWVKERPGHGLEWMGNINPNNGGTDFNEKFKNRVTITVHKSASTAYMELSSLRSEDTAVYYCARGTGTGAMDYWGQGTTVTVSS VL: DIVMTQSPLSLSVTPGQPASISCRSSQSLVHNNGITYLYWYLQKPGQSPQLLIYRVSNRFSGVPDRFSGSGSGTDFTLKISRVEAEDVGVYYCFQGTHVPRTFGQGTKVEIK"
8,0.15 nM,"Ab2 (antibody, V domains shown, enriched paired helical filament tau, hyperphosphorylated) VH: QVQLVESGAEVKKPGASVKVSCKASGFTFTRYWMHWVKERPGHGLEWMGNINPNNGGTDFNEKFKNRVTITVHKSASTAYMELSSLRSEDTAVYYCARGTGTGAMDYWGQGTTVTVSS VL: DVVMTQSPLSLPVTLGQPASISCRSSQSLVHNNGITYLYWYQQRPGQSPRLLIYRVSNRFSGVPDRFSGSGSGTDFTLKISRVEAEDVGVYYCFQGTHVPRTFGQGTKLEIK"
9,0.14 nM,"Ab10 (antibody, V domains shown, enriched paired helical filament tau, hyperphosphorylated) VH: EVQLVQSGAEVKKPGSSVKVSCKASGFTFTRYWMHWVKERPGHGLEWIGNINPNNGGTDFNEKFKNRVTMTVHKSITTAYMELSRLTSDDSAVYYCARGTGTGAMDYWGQGTLVSVSS VL: DIVMTQTPLSSPVTLGQPASISCRSSQSLVHNNGITYLYWYQQRPGQPPRLLIYRVSNRFSGVPDRFSGSGAGTDFTLKINRVEAEDVGVYFCFQGTHVPRTFGQGTKLEIK"
10,0.19 nM,"Ab5 (antibody, V domains shown, enriched paired helical filament tau, hyperphosphorylated) VH: QVQLVQSGAEVKKPGASVKVSCKASGFTFTRYWMHWVKERPGQGLEWMGNINPNNGGTDFNEKFKNRVTMTVHKSTSTVFIQLSSLRSEDTAVYYCARGTGTGAMDYWGQGTSVTVSS VL: DIVMTQTPLSSPVTLGQPASISCRSSQSLVHNNGITYLYWYQQRPGQPPRLLIYRVSNRFSGVPDRFSGSGAGTDFTLKINRVEAEDVGVYFCFQGTHVPRTFGQGTKLEIK"
11,0.08 nM,"hV0022 control (antibody, V domains shown, enriched paired helical filament tau, hyperphosphorylated) VH: QVQLQQPGTELVKPGSSVNLSCKASGFTFTRYWMHWVKERPGHGLEWIGNINPNNGGTDFNEKFKNKATLTVHKSSTTVFIQLSSLTSEDSAVYYCARGTGTGAMDYWGQGTSVTVSS VL: DVVMTQTPLSLPVSLGDQASISCRSSQSLVHNNGITYLYWYLQKPGQSPKLLIYRVSNRFSGVPDRFGGSGSGTDFTLKISRVEAEDLGVYFCFQGTHVPRTFGGGTKLEIK"
